{"source": "paper PMC12990809", "experiment_in_all_cases": "pulldown", "key": {"G3BP2 (Homo sapiens)": {"molecular_target": "T1, G3BP2 (Homo sapiens) (UniProt Q9UN86)", "T1 sequence": "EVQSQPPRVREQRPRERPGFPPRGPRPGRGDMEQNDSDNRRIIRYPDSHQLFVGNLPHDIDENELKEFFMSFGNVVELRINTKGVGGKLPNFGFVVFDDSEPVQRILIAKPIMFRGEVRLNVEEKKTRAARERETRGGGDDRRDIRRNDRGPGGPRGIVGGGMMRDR", "settings": "20 nM protein, 1.5 uM RNA pool; 20 mM HEPES pH 7.8, 70 mM KCl, 10 mM NaCl, 10% glycerol, 2 mM DTT, 0.1 ug/uL BSA; 30 min, 4 C (protocol of this paper; not …); cited from earlier work"}, "[1]": {"molecular_target": "T2, csx1 (Schizosaccharomyces pombe) (UniProt O13759)", "T2 sequence": "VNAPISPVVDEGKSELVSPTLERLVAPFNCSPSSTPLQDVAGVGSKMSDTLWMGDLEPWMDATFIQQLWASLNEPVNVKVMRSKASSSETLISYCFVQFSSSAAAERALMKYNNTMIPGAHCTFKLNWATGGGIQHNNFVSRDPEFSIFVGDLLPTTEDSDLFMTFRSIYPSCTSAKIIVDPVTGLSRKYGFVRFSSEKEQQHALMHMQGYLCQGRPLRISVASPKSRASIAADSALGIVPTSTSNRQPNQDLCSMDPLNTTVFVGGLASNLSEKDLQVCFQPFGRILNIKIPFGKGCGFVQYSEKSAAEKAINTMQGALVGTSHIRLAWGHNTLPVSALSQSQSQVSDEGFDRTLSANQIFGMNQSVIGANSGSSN", "settings": "20 nM protein, 1.5 uM RNA pool; 20 mM HEPES pH 7.8, 70 mM KCl, 10 mM NaCl, 10% glycerol, 2 mM DTT, 0.1 ug/uL BSA; 30 min, 4 C"}, "[2]": {"molecular_target": "T3, rbm24a (Tetraodon nigroviridis) (UniProt H3CUV7)", "T3 sequence": "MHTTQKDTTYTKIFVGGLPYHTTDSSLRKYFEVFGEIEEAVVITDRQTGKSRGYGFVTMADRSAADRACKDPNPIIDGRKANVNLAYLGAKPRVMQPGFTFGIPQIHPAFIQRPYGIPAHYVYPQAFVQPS", "settings": "20 nM protein, 1.5 uM RNA pool; 20 mM HEPES pH 7.8, 70 mM KCl, 10 mM NaCl, 10% glycerol, 2 mM DTT, 0.1 ug/uL BSA; 30 min, 4 C (protocol of this paper; not …); cited from earlier work"}, "[3]": {"molecular_target": "T4, spo5 (Schizosaccharomyces pombe) (UniProt Q2L4W6)", "T4 sequence": "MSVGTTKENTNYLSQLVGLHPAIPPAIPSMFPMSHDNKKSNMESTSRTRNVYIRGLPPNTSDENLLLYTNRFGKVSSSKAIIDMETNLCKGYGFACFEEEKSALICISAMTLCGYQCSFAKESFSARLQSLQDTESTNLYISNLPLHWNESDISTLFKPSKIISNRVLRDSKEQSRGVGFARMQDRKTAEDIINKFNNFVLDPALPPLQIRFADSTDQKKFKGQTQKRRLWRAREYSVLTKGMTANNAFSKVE", "settings": "20 nM protein, 1.5 uM RNA pool; 20 mM HEPES pH 7.8, 70 mM KCl, 10 mM NaCl, 10% glycerol, 2 mM DTT, 0.1 ug/uL BSA; 30 min, 4 C"}, "[4]": {"molecular_target": "T5, AT1G76460 (Arabidopsis thaliana) (UniProt F4I2E4)", "T5 sequence": "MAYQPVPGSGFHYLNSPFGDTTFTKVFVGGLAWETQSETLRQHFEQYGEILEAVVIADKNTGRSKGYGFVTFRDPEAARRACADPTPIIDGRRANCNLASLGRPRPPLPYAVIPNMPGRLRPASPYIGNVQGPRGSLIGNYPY", "settings": "20 nM protein, 1.5 uM RNA pool; 20 mM HEPES pH 7.8, 70 mM KCl, 10 mM NaCl, 10% glycerol, 2 mM DTT, 0.1 ug/uL BSA; 30 min, 4 C (protocol of this paper; not …); cited from earlier work"}, "HNRNPR (Gallus gallus)": {"molecular_target": "T6, HNRNPR (Gallus gallus) (UniProt A0A8V0YGA1)", "T6 sequence": "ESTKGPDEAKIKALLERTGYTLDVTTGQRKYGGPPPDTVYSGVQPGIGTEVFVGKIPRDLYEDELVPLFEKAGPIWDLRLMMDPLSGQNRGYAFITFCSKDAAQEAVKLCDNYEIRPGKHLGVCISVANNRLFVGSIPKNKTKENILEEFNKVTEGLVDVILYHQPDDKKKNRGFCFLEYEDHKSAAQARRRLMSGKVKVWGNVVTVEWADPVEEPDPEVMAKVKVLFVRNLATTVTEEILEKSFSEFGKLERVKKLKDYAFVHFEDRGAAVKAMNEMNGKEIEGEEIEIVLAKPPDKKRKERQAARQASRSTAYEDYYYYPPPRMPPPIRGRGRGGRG", "settings": "20 nM protein, 1.5 uM RNA pool; 20 mM HEPES pH 7.8, 70 mM KCl, 10 mM NaCl, 10% glycerol, 2 mM DTT, 0.1 ug/uL BSA; 30 min, 4 C (protocol of this paper; not …); cited from earlier work"}, "rbm38 (Danio rerio)": {"molecular_target": "T7, rbm38 (Danio rerio) (UniProt A0A8M1NF18)", "T7 sequence": "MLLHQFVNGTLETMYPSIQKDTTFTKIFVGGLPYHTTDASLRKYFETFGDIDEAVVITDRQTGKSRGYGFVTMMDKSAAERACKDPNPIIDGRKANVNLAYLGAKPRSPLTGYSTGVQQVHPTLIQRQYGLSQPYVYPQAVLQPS", "settings": "20 nM protein, 1.5 uM RNA pool; 20 mM HEPES pH 7.8, 70 mM KCl, 10 mM NaCl, 10% glycerol, 2 mM DTT, 0.1 ug/uL BSA; 30 min, 4 C (protocol of this paper; not …); cited from earlier work"}, "[5]": {"molecular_target": "T8, CBG13971 (Caenorhabditis briggsae) (UniProt A8XIX4)", "T8 sequence": "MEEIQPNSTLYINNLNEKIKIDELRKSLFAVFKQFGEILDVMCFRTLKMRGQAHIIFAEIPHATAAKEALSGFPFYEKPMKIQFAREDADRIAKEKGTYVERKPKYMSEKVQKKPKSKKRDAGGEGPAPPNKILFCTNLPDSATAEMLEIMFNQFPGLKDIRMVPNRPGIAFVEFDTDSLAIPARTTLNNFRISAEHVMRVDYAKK", "settings": "20 nM protein, 1.5 uM RNA pool; 20 mM HEPES pH 7.8, 70 mM KCl, 10 mM NaCl, 10% glycerol, 2 mM DTT, 0.1 ug/uL BSA; 30 min, 4 C"}, "[6]": {"molecular_target": "T9, rnp-2 (Caenorhabditis elegans) (UniProt Q21322)", "T9 sequence": "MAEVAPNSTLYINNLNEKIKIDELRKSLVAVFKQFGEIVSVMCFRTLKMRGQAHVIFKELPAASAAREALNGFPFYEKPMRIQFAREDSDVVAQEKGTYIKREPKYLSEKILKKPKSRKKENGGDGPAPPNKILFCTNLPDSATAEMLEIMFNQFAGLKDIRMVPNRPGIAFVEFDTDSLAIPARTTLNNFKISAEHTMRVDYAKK", "settings": "20 nM protein, 1.5 uM RNA pool; 20 mM HEPES pH 7.8, 70 mM KCl, 10 mM NaCl, 10% glycerol, 2 mM DTT, 0.1 ug/uL BSA; 30 min, 4 C"}}, "data": [{"substance": "AGGAUNA [RNAcompete motif RNCMPT00021]", "values": [{"measurement": "binding signal (z-score (mean of top ten 7-mers))", "setting": "G3BP2 (Homo sapiens)", "result": 8.75}]}, {"substance": "UGUUUU [RNAcompete motif RNCMPT00325]", "values": [{"measurement": "binding signal (z-score (mean of top ten 7-mers))", "setting": "[1]", "result": 9.34}]}, {"substance": "UGUGUG [RNAcompete motif RNCMPT00285]", "values": [{"measurement": "binding signal (z-score (mean of top ten 7-mers))", "setting": "[2]", "result": 10.2}]}, {"substance": "AUAUUA [RNAcompete motif RNCMPT00311]", "values": [{"measurement": "binding signal (z-score (mean of top ten 7-mers))", "setting": "[3]", "result": 7.81}]}, {"substance": "AGUGUGA [RNAcompete motif RNCMPT00284]", "values": [{"measurement": "binding signal (z-score (mean of top ten 7-mers))", "setting": "[4]", "result": 8.11}]}, {"substance": "AAAUU [RNAcompete motif RNCMPT00288]", "values": [{"measurement": "binding signal (z-score (mean of top ten 7-mers))", "setting": "HNRNPR (Gallus gallus)", "result": 6.51}]}, {"substance": "GUGUGUG [RNAcompete motif RNCMPT00283]", "values": [{"measurement": "binding signal (z-score (mean of top ten 7-mers))", "setting": "rbm38 (Danio rerio)", "result": 9.92}]}, {"substance": "GCACUU [RNAcompete motif RNCMPT00323]", "values": [{"measurement": "binding signal (z-score (mean of top ten 7-mers))", "setting": "[5]", "result": 11.2}]}, {"substance": "GCACUU [RNAcompete motif RNCMPT00301]", "values": [{"measurement": "binding signal (z-score (mean of top ten 7-mers))", "setting": "[6]", "result": 27}]}]}
